Data taken from the supplement of paper PMC10065799, “High-throughput profiling of sequence recognition by tyrosine kinases and SH2 domains using bacterial peptide display” (eLife, 2023).
Blank lines part the entries; values can stand above or below the sequence they belong to.

Columns and labels:
MERTK = MERTK (UniProt Q12866); experiment: phosphorylation enrichment, bacterial display (enrichment ratio); higher = better substrate or ligand; peptides without Tyr show the background
Fer (mouse) = experiment: as above
AncSZ = experiment: as above
FGFR1 = FGFR1 (UniProt P11362); experiment: as above
FGFR3 = FGFR3 (UniProt P22607); experiment: as above
EPHB1 = EPHB1 (UniProt P54762); experiment: as above
c-Src = experiment: as above
Fes = Fes (UniProt P07332); experiment: as above
Fyn = Fyn (UniProt P06241); experiment: as above
Hck = Hck (UniProt P08631); experiment: as above
c-Abl (mouse) = experiment: as above
EPHB2 = EPHB2 (UniProt P29323); experiment: as above
Jak2 = Jak2 (UniProt O60674); experiment: as above
SHP2-C SH2 = experiment: SH2 binding enrichment of the phosphorylated peptide, bacterial display (enrichment ratio); higher = better substrate or ligand; peptides without Tyr show the background
Grb2 SH2 = Grb2 SH2 (UniProt P62993); experiment: as above
c-Src SH2 = experiment: as above
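Throughout, for SH2 binding enrichment of the phosphorylated peptide, bacterial display: peptide library displayed on the E. coli surface as eCPX fusions, selected cells deep-sequenced, score is each peptide's frequency after selection divided by its frequency in the input.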
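Throughout, for phosphorylation enrichment, bacterial display: 11-residue human phosphosite peptides and single-mutation variants displayed on the E. coli surface, counted by deep sequencing, each peptide's frequency after selection divided by its frequency in the unselected input library; frequency after pTyr selection over input frequency; kinase dosed for 20-30% of maximal phosphorylation in three min.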

Chain of FGFR3 (P22607 whole entry, looked up): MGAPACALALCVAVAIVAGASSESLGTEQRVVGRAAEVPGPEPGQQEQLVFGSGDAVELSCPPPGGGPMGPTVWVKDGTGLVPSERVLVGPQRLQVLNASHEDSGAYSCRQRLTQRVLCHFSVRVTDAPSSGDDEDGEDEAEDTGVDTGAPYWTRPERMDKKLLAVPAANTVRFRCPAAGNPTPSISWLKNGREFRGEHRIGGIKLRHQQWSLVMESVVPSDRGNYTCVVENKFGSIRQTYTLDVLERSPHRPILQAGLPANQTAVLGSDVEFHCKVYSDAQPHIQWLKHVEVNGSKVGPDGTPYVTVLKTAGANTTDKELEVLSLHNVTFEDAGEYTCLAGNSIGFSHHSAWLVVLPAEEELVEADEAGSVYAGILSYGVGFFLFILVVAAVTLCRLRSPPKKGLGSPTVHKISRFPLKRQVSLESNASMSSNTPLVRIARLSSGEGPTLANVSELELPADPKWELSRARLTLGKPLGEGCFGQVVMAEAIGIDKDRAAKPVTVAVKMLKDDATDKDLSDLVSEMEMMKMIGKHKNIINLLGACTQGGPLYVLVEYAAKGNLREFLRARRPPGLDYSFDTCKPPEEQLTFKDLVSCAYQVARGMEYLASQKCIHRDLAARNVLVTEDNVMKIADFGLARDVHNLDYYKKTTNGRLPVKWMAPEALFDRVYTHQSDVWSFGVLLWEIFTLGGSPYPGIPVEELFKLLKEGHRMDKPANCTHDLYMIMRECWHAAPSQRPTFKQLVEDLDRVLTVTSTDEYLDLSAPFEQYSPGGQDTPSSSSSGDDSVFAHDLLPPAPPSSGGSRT
Chain of FGFR1 (P11362 whole entry, looked up): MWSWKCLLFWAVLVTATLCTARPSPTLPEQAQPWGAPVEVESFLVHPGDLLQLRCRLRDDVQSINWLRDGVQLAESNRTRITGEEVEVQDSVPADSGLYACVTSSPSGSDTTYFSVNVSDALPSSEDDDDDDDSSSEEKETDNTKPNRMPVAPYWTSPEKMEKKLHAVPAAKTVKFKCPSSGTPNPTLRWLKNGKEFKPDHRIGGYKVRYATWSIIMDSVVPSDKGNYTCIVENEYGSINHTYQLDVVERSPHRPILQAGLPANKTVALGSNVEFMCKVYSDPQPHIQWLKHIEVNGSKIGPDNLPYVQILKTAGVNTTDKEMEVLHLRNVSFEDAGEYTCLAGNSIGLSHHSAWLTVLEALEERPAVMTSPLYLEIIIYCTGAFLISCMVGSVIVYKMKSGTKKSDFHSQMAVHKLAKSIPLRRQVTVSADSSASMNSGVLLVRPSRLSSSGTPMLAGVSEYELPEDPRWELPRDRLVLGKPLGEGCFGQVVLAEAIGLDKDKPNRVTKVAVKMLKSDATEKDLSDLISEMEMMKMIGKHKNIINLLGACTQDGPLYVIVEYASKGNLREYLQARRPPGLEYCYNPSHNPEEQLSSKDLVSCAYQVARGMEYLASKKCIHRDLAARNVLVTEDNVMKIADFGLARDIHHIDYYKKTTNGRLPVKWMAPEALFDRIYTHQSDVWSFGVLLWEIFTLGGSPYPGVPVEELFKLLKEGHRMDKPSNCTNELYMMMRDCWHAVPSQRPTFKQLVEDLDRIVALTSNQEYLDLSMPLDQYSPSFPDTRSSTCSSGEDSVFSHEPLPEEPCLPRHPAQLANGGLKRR
Chain of Fyn (P06241 whole entry, looked up): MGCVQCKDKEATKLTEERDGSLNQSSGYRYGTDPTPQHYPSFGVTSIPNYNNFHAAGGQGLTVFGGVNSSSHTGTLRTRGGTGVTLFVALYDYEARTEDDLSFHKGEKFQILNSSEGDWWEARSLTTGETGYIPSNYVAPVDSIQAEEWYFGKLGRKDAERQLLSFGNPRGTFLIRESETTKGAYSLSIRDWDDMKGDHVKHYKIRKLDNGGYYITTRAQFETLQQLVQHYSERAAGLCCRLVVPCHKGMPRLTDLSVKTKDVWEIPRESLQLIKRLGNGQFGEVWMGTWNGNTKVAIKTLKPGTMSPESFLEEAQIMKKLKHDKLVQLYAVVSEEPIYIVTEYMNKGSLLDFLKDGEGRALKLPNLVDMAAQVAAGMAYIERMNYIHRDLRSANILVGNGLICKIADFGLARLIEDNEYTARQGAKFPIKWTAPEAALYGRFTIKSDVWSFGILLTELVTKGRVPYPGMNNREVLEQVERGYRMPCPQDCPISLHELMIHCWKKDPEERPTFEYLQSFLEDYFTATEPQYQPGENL
Chain of EPHB1 (P54762 whole entry, looked up): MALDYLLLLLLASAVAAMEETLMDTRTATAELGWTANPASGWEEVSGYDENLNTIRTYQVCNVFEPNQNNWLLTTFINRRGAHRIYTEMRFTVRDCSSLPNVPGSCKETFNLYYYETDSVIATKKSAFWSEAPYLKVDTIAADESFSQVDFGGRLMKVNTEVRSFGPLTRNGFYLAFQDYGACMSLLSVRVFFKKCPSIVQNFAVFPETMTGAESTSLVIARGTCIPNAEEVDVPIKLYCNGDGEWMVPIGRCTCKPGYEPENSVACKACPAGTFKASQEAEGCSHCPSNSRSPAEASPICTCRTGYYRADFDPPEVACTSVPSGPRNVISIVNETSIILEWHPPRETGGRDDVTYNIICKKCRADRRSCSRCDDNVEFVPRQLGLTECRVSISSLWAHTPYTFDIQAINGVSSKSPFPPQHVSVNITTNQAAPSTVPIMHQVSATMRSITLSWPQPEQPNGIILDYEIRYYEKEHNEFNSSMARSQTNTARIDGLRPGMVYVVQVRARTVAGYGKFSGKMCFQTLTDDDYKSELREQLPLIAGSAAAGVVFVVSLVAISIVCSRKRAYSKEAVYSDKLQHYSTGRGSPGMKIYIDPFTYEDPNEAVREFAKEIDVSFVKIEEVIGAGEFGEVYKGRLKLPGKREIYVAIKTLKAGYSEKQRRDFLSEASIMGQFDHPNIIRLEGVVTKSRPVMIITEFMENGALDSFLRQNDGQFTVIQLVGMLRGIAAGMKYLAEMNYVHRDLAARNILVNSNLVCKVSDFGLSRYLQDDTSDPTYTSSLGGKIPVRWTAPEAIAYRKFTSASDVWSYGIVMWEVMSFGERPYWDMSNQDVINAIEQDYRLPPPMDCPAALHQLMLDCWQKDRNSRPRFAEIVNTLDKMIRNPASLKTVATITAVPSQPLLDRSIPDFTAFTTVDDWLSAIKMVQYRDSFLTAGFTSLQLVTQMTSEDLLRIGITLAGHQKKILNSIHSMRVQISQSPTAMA
Chain of EPHB2 (P29323 whole entry, looked up): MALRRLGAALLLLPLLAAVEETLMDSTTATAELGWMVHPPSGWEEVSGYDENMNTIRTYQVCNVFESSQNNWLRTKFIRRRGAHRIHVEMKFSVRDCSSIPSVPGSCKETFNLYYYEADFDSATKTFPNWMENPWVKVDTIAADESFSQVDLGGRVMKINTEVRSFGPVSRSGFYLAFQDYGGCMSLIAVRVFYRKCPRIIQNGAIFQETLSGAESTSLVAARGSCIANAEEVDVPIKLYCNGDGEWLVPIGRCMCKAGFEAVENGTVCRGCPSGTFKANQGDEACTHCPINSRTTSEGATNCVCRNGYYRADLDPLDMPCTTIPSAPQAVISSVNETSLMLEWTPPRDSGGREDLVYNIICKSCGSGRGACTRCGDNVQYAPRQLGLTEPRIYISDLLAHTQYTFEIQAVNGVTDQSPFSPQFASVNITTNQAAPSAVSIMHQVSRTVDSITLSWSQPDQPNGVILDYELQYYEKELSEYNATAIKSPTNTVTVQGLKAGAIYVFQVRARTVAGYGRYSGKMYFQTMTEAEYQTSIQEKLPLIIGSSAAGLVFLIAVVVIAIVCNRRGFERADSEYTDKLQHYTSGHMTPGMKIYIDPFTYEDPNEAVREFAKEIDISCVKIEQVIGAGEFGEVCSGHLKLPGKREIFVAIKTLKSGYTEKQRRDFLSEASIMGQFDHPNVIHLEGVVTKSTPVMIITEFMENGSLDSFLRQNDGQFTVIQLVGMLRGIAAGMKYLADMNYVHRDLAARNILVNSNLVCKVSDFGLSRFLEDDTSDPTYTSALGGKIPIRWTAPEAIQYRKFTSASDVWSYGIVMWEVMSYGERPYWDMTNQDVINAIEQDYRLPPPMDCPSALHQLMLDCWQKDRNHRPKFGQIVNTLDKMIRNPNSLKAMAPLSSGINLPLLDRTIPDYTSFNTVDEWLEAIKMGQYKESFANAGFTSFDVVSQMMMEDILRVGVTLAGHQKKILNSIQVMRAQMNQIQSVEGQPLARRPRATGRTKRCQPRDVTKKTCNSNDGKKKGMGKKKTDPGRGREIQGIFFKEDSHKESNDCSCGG
Chain of Fes (P07332 whole entry, looked up): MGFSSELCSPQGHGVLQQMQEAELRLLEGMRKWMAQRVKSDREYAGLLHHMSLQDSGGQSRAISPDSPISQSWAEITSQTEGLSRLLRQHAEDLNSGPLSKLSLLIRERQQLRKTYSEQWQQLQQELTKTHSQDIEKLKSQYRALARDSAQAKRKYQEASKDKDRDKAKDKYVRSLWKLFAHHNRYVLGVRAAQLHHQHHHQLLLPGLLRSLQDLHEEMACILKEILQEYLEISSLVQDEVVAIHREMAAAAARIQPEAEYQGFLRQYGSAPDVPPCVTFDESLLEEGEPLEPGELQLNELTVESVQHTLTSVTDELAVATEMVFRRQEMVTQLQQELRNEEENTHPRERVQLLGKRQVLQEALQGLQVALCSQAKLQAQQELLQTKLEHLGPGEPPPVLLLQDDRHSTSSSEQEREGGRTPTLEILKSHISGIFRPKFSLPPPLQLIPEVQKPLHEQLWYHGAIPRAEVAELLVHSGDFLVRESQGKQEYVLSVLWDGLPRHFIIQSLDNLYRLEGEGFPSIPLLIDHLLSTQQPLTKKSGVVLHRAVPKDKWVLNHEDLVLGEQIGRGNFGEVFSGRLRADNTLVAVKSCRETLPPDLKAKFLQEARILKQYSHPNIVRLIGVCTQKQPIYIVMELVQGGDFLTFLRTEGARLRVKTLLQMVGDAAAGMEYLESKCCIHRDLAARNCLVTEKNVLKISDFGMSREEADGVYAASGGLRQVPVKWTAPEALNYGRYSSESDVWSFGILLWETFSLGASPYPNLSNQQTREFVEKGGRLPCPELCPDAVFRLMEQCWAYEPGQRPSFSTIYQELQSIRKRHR

Sequence: GTVRDYPDFSP [ANXA3_Y15]
phosphorylation enrichment (MERTK): 0.364
phosphorylation enrichment (Fer (mouse)): 0.395
phosphorylation enrichment (AncSZ): 0.759
phosphorylation enrichment (FGFR1): 0.508
phosphorylation enrichment (FGFR3): 0.587
phosphorylation enrichment (EPHB1): 0.44
phosphorylation enrichment (c-Src): 0.372
phosphorylation enrichment (Fes): 0.79
phosphorylation enrichment (Fyn): 0.444
phosphorylation enrichment (Hck): 0.49
phosphorylation enrichment (c-Abl (mouse)): 0.532
phosphorylation enrichment (EPHB2): 0.559
phosphorylation enrichment (Jak2): 0.702
SH2 binding enrichment (SHP2-C SH2): 0.623
SH2 binding enrichment (Grb2 SH2): 0.732
SH2 binding enrichment (c-Src SH2): 0.439

Sequence: LKETGYVVERP [BCLAF1_Y466]
phosphorylation enrichment (MERTK): 0.438
phosphorylation enrichment (Fer (mouse)): 0.321
phosphorylation enrichment (AncSZ): 0.768
phosphorylation enrichment (FGFR1): 0.443
phosphorylation enrichment (FGFR3): 0.609
phosphorylation enrichment (EPHB1): 0.494
phosphorylation enrichment (c-Src): 0.411
phosphorylation enrichment (Fes): 0.807
phosphorylation enrichment (Fyn): 0.434
phosphorylation enrichment (Hck): 0.399
phosphorylation enrichment (c-Abl (mouse)): 0.469
phosphorylation enrichment (EPHB2): 0.278
phosphorylation enrichment (Jak2): 0.553
SH2 binding enrichment (SHP2-C SH2): 0.68
SH2 binding enrichment (Grb2 SH2): 0.862
SH2 binding enrichment (c-Src SH2): 0.501

Sequence: ISKQEYDEAGP [ACTC1_Y364]
phosphorylation enrichment (MERTK): 0.518
phosphorylation enrichment (Fer (mouse)): 0.627
phosphorylation enrichment (AncSZ): 1.28
phosphorylation enrichment (FGFR1): 0.522
phosphorylation enrichment (FGFR3): 0.819
phosphorylation enrichment (EPHB1): 0.65
phosphorylation enrichment (c-Src): 0.598
phosphorylation enrichment (Fes): 1.29
phosphorylation enrichment (Fyn): 0.602
phosphorylation enrichment (Hck): 0.616
phosphorylation enrichment (c-Abl (mouse)): 0.79
phosphorylation enrichment (EPHB2): 0.741
phosphorylation enrichment (Jak2): 1.31
SH2 binding enrichment (SHP2-C SH2): 0.718
SH2 binding enrichment (Grb2 SH2): 0.921
SH2 binding enrichment (c-Src SH2): 6.16

Sequence: EEKKKYFDTKI [CASP5_Y103_YF]
phosphorylation enrichment (MERTK): 0.332
phosphorylation enrichment (Fer (mouse)): 0.457
phosphorylation enrichment (AncSZ): 0.928
phosphorylation enrichment (FGFR1): 0.447
phosphorylation enrichment (FGFR3): 0.519
phosphorylation enrichment (EPHB1): 0.429
phosphorylation enrichment (c-Src): 0.402
phosphorylation enrichment (Fes): 0.954
phosphorylation enrichment (Fyn): 0.374
phosphorylation enrichment (Hck): 0.559
phosphorylation enrichment (c-Abl (mouse)): 0.657
phosphorylation enrichment (EPHB2): 0.445
phosphorylation enrichment (Jak2): 0.665
SH2 binding enrichment (SHP2-C SH2): 0.698
SH2 binding enrichment (Grb2 SH2): 0.821
SH2 binding enrichment (c-Src SH2): 0.462

The next lines start with results.

SH2 binding enrichment (SHP2-C SH2): 1.02
SH2 binding enrichment (Grb2 SH2): 1.02
SH2 binding enrichment (c-Src SH2): 0.872
Sequence: PFRFIYMAVQH [PTPN11_Y515_Q510P_YF]
phosphorylation enrichment (MERTK): 0.527
phosphorylation enrichment (Fer (mouse)): 0.563
phosphorylation enrichment (AncSZ): 1.09
phosphorylation enrichment (FGFR1): 0.463
phosphorylation enrichment (FGFR3): 0.726
phosphorylation enrichment (EPHB1): 0.741
phosphorylation enrichment (c-Src): 1.26
phosphorylation enrichment (Fes): 1.01
phosphorylation enrichment (Fyn): 0.732
phosphorylation enrichment (Hck): 1.11
phosphorylation enrichment (c-Abl (mouse)): 1.27
phosphorylation enrichment (EPHB2): 0.737
phosphorylation enrichment (Jak2): 1.18

SH2 binding enrichment (SHP2-C SH2): 0.891
SH2 binding enrichment (Grb2 SH2): 0.679
SH2 binding enrichment (c-Src SH2): 0.26
Sequence: QKNVSYVSTVS [TASOR_Y1043]
phosphorylation enrichment (MERTK): 0.509
phosphorylation enrichment (Fer (mouse)): 0.403
phosphorylation enrichment (AncSZ): 0.815
phosphorylation enrichment (FGFR1): 0.405
phosphorylation enrichment (FGFR3): 0.506
phosphorylation enrichment (EPHB1): 0.285
phosphorylation enrichment (c-Src): 0.335
phosphorylation enrichment (Fes): 0.514
phosphorylation enrichment (Fyn): 0.532
phosphorylation enrichment (Hck): 0.47
phosphorylation enrichment (c-Abl (mouse)): 0.38
phosphorylation enrichment (EPHB2): 1.75
phosphorylation enrichment (Jak2): 0.401

SH2 binding enrichment (SHP2-C SH2): 0.861
SH2 binding enrichment (Grb2 SH2): 0.727
SH2 binding enrichment (c-Src SH2): 0.645
Sequence: LDYNEYFRDLN [HPRT1_Y198]
phosphorylation enrichment (MERTK): 0.519
phosphorylation enrichment (Fer (mouse)): 0.555
phosphorylation enrichment (AncSZ): 1.81
phosphorylation enrichment (FGFR1): 1.39
phosphorylation enrichment (FGFR3): 1.28
phosphorylation enrichment (EPHB1): 0.741
phosphorylation enrichment (c-Src): 0.649
phosphorylation enrichment (Fes): 1.33
phosphorylation enrichment (Fyn): 0.828
phosphorylation enrichment (Hck): 0.661
phosphorylation enrichment (c-Abl (mouse)): 1.13
phosphorylation enrichment (EPHB2): 0.753
phosphorylation enrichment (Jak2): 1.68

SH2 binding enrichment (SHP2-C SH2): 1.3
SH2 binding enrichment (Grb2 SH2): 0.8
SH2 binding enrichment (c-Src SH2): 0.561
Sequence: PVQAPYQKVVA [HBB_Y131_A130P]
phosphorylation enrichment (MERTK): 0.691
phosphorylation enrichment (Fer (mouse)): 0.381
phosphorylation enrichment (AncSZ): 0.744
phosphorylation enrichment (FGFR1): 0.436
phosphorylation enrichment (FGFR3): 0.429
phosphorylation enrichment (EPHB1): 0.543
phosphorylation enrichment (c-Src): 0.563
phosphorylation enrichment (Fes): 0.94
phosphorylation enrichment (Fyn): 0.539
phosphorylation enrichment (Hck): 0.687
phosphorylation enrichment (c-Abl (mouse)): 0.732
phosphorylation enrichment (EPHB2): 0.691
phosphorylation enrichment (Jak2): 0.687
